The values that follow come from paper PMC8996344 (Nature immunology, 2021).

The target of the assay is T1, GST–regnase-1^D141N (human, UniProt Q5D1E8 1-599, D141N).
T1 sequence (looked up): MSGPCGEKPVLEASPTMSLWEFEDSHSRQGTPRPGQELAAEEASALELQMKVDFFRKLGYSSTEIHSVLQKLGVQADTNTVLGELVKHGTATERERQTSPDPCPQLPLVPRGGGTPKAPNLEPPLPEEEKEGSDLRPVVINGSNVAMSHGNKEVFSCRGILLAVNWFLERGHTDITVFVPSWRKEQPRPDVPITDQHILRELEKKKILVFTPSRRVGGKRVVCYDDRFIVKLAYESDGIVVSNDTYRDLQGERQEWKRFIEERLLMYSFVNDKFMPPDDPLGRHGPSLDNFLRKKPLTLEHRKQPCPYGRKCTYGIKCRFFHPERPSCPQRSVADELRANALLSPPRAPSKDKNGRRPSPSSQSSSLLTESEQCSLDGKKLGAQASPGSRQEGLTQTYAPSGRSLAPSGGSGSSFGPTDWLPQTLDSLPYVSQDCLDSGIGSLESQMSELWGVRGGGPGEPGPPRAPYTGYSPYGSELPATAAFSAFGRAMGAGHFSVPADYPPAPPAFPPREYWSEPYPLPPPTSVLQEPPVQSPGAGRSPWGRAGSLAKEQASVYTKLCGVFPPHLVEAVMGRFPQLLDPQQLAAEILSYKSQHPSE
As to the kind of experiment: pull-down.

B1: Roquin-1^aa2-440;E212K (domain or fragment, UniProt Q4VGL6 2-440, looked up)
chain: PVQAPQWTDFLSCPICTQTFDETIRKPISLGCGHTVCKMCLNKLHRKACPFDQTTINTDIELLPVNSALLQLVGAQIPEQQPITLCSGVEDTKHYEEAKKCVEELALYLKPLSSARGVGLNSTTQSVLSRPMQRKLVTLVHCQLVEEEGRIRAMRAARSLGERTVTELILQHQNPQQLSSNLWAAVRARGCQFLGPAMQEEALKLVLLALKDGSALSRKVLVLFVVQRLEPRFPQASKTSIGHVVQLLYRASCFKVTKRDEDSSLMQLKEEFRTYEALRREHDSQIVQIAMEAGLRIAPDQWSSLLYGDQSHKSHMQSIIDKLQTPASFAQSVQELTIALQRTGDPANLNRLRPHLELLANIDPSPDAPPPTWEQLENGLVAVRTVVHGLVDYIQNHSKKGADQQQPPQHSKYKTYMCRDMKQRGGCPRGASCTFAHSQ
Turning to B1, the “fold reduction of binding against SUMO–roquin-1^aa2-440 wild type” value (“fold reduction of binding” below) turned out to be 2 fold.

B2: Roquin-1^aa2-440;L209Y (domain or fragment, UniProt Q4VGL6 2-440, looked up)
chain: PVQAPQWTDFLSCPICTQTFDETIRKPISLGCGHTVCKMCLNKLHRKACPFDQTTINTDIELLPVNSALLQLVGAQIPEQQPITLCSGVEDTKHYEEAKKCVEELALYLKPLSSARGVGLNSTTQSVLSRPMQRKLVTLVHCQLVEEEGRIRAMRAARSLGERTVTELILQHQNPQQLSSNLWAAVRARGCQFLGPAMQEEALKLVLYALEDGSALSRKVLVLFVVQRLEPRFPQASKTSIGHVVQLLYRASCFKVTKRDEDSSLMQLKEEFRTYEALRREHDSQIVQIAMEAGLRIAPDQWSSLLYGDQSHKSHMQSIIDKLQTPASFAQSVQELTIALQRTGDPANLNRLRPHLELLANIDPSPDAPPPTWEQLENGLVAVRTVVHGLVDYIQNHSKKGADQQQPPQHSKYKTYMCRDMKQRGGCPRGASCTFAHSQ
For the molecule B2, the “fold reduction of binding” value turned out to be 2 fold.

B3: Roquin-1^aa2-440;M199R (domain or fragment, UniProt Q4VGL6 2-440, looked up)
chain: PVQAPQWTDFLSCPICTQTFDETIRKPISLGCGHTVCKMCLNKLHRKACPFDQTTINTDIELLPVNSALLQLVGAQIPEQQPITLCSGVEDTKHYEEAKKCVEELALYLKPLSSARGVGLNSTTQSVLSRPMQRKLVTLVHCQLVEEEGRIRAMRAARSLGERTVTELILQHQNPQQLSSNLWAAVRARGCQFLGPARQEEALKLVLLALEDGSALSRKVLVLFVVQRLEPRFPQASKTSIGHVVQLLYRASCFKVTKRDEDSSLMQLKEEFRTYEALRREHDSQIVQIAMEAGLRIAPDQWSSLLYGDQSHKSHMQSIIDKLQTPASFAQSVQELTIALQRTGDPANLNRLRPHLELLANIDPSPDAPPPTWEQLENGLVAVRTVVHGLVDYIQNHSKKGADQQQPPQHSKYKTYMCRDMKQRGGCPRGASCTFAHSQ
With B3, the “fold reduction of binding” value was 2 fold.
